The text below walks through data of patent US10562947B2, “Compositions and methods for preventing or treating diseases, conditions or processes characterized by aberrant fibroblast proliferation and extracellular matrix deposition” (MOERAE MATRIX, INC., priority 2011, dated 2020).

Usually inhibition stands for the drop in the measured response relative to a control, in per cent.

Common to all, as to assay: Kinase Profiling Assay
Assay type in all cases: biochemical

One experiment addresses T1, ROCK-II(h) (Homo sapiens, UniProt O75116).
T1 construct: purchased Millipore (IC50 Profiler Express service)
The conditions noted are these: 100 μM peptide. The method, boiled down: (§1)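 Each kinase in a 266-member human panel is assayed, in duplicate, for activity in the presence of MK2 inhibitory peptides to gauge specificity.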

The target of another experiment is Fms(h) (Homo sapiens, UniProt P07333). The following applies: 100 μM peptide. In short, it runs like this:
as §1

The target of another experiment is FGFR1(h) (Homo sapiens, UniProt P11362). The conditions noted are these: 100 μM peptide. The method, boiled down: as §1
The target in the next experiment is KDR(h) (Homo sapiens, UniProt P35968). The conditions noted are these: 100 μM peptide. The method, boiled down: as §1
KDR(h), sequence (P35968 20-1356): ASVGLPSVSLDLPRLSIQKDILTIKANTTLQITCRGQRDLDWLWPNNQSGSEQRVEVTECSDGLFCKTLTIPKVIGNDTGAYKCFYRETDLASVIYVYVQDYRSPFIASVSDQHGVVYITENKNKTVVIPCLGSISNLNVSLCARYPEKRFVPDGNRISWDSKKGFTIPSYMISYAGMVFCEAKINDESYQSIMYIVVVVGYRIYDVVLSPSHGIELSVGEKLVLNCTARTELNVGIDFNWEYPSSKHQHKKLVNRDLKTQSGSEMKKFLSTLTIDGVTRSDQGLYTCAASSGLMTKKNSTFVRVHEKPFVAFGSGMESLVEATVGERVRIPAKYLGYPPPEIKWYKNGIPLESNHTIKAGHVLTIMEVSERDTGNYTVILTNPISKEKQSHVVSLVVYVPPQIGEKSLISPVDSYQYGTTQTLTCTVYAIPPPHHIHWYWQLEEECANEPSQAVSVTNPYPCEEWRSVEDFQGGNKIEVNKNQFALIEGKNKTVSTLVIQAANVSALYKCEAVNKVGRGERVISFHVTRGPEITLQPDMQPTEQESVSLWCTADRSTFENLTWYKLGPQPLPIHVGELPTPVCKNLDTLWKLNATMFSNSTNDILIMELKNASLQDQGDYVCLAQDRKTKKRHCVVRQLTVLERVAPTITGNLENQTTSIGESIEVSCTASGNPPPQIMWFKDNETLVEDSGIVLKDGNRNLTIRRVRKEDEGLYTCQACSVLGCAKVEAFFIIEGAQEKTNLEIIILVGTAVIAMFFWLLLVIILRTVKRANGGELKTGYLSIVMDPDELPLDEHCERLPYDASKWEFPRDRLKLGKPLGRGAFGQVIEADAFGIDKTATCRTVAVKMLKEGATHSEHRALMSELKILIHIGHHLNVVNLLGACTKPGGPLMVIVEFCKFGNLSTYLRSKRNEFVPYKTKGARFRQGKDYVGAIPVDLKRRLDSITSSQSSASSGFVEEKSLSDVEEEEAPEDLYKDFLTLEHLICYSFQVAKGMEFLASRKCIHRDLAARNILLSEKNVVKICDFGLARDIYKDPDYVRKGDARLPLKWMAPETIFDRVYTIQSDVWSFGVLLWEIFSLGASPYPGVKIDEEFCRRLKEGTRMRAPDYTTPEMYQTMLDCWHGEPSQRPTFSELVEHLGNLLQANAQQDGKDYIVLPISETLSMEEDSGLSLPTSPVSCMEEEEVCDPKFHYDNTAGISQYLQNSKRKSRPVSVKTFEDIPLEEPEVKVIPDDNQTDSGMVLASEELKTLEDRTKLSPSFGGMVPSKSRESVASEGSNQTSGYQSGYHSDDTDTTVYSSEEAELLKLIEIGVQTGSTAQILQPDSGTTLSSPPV
For another experiment, the target named is CDK7/cyclinH/MAT1(h) (Homo sapiens, UniProt P50613). The conditions noted are these: 100 μM peptide. In short, it runs like this: as §1
CDK7/cyclinH/MAT1(h), sequence (P50613 whole entry): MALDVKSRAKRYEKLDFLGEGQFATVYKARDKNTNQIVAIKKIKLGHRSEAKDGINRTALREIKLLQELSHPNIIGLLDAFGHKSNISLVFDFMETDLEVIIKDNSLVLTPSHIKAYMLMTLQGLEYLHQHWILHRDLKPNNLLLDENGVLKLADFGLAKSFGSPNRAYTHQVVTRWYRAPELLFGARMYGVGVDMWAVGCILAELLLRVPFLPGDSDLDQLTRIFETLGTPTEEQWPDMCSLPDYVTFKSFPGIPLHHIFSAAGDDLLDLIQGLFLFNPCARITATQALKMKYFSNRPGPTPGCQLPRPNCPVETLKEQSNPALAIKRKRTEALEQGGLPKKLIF
CDK7/cyclinH/MAT1(h), sequence (P51946 whole entry partner): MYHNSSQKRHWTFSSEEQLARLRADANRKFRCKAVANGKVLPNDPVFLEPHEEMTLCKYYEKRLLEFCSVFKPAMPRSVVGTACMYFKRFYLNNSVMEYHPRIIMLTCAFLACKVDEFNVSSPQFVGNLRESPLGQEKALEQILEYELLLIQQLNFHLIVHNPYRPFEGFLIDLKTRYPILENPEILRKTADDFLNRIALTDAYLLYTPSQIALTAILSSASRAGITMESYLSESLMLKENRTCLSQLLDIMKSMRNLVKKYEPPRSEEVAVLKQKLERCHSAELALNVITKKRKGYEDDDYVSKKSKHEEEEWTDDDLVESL
CDK7/cyclinH/MAT1(h), sequence (P51948 whole entry partner): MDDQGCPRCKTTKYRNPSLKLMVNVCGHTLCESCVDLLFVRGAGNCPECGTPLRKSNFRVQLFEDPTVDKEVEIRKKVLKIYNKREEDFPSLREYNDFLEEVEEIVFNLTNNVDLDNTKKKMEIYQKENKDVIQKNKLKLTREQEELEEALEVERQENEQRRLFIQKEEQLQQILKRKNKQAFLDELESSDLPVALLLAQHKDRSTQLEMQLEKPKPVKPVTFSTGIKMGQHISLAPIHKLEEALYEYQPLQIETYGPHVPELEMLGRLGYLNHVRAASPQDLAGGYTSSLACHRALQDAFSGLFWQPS
In the next experiment the target is MAPKAP-K3(h) (Homo sapiens, UniProt Q16644). The conditions noted are these: for MAPKAP-K3(h) % activity: 100 μM peptide. The method, boiled down:
as §1

In the next experiment the target is CDK9/cyclin T1(h) (Homo sapiens, UniProt P50750). The following applies: 100 μM peptide. The method, boiled down: as §1
CDK9/cyclin T1(h), sequence (P50750 whole entry): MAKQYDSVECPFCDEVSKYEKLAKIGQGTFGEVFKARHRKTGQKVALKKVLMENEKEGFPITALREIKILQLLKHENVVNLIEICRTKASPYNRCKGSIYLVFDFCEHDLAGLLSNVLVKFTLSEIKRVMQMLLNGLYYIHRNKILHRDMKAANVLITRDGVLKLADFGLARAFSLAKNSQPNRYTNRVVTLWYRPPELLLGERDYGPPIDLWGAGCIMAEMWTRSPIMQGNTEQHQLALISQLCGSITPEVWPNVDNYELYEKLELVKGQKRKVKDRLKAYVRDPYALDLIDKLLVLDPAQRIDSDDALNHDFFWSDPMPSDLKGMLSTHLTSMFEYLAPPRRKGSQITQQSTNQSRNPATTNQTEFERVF
CDK9/cyclin T1(h), sequence (O60563 whole entry partner): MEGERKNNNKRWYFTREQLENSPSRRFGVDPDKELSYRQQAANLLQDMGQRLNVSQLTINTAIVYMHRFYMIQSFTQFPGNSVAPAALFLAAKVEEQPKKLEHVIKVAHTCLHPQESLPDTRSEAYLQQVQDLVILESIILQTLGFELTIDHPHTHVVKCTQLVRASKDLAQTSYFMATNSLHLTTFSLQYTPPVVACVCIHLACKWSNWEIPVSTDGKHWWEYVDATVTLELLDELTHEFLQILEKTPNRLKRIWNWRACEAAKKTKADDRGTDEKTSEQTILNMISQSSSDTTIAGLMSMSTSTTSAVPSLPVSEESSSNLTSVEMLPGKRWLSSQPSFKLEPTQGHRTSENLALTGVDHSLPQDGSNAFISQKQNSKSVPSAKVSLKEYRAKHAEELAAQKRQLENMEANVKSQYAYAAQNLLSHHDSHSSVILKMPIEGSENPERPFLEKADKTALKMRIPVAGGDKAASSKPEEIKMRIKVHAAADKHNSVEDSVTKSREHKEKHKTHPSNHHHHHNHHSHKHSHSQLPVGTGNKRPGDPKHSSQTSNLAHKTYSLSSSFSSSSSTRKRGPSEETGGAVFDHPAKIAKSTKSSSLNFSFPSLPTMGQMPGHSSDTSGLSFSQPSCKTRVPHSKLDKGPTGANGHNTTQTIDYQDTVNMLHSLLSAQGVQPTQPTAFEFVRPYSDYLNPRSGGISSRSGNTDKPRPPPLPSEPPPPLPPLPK
A further experiment addresses T2, TAO1(h) (Homo sapiens, UniProt Q7L7X3).
T2 sequence (Q7L7X3 1-1001): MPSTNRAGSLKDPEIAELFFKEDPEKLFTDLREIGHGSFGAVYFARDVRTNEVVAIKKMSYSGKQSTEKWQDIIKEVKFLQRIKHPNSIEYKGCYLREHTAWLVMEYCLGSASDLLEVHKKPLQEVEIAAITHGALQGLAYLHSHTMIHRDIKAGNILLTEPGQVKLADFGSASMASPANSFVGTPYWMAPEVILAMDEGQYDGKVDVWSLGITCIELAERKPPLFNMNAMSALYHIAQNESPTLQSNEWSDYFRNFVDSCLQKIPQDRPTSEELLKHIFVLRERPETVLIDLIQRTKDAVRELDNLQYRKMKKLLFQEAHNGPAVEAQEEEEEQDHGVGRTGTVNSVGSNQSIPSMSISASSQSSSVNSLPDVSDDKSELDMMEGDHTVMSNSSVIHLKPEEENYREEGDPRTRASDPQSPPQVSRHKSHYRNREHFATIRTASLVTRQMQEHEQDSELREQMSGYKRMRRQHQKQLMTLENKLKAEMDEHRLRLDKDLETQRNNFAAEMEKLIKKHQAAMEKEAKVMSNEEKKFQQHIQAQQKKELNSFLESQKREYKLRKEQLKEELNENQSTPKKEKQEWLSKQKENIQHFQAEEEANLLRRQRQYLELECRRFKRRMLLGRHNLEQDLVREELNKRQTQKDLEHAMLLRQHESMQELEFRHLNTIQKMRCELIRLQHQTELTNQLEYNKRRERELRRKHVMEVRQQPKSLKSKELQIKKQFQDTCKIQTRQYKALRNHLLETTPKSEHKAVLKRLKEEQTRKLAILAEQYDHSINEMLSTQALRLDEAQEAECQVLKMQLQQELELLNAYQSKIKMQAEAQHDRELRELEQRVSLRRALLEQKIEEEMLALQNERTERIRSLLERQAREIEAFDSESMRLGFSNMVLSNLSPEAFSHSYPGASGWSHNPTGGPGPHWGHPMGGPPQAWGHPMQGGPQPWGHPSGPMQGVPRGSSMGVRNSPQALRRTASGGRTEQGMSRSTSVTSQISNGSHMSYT
The conditions noted are these: 100 μM peptide. The method, boiled down:
as §1

The target in the next experiment is T3, EphA1(h) (Homo sapiens, UniProt P21709).
T3 sequence (P21709 26-976): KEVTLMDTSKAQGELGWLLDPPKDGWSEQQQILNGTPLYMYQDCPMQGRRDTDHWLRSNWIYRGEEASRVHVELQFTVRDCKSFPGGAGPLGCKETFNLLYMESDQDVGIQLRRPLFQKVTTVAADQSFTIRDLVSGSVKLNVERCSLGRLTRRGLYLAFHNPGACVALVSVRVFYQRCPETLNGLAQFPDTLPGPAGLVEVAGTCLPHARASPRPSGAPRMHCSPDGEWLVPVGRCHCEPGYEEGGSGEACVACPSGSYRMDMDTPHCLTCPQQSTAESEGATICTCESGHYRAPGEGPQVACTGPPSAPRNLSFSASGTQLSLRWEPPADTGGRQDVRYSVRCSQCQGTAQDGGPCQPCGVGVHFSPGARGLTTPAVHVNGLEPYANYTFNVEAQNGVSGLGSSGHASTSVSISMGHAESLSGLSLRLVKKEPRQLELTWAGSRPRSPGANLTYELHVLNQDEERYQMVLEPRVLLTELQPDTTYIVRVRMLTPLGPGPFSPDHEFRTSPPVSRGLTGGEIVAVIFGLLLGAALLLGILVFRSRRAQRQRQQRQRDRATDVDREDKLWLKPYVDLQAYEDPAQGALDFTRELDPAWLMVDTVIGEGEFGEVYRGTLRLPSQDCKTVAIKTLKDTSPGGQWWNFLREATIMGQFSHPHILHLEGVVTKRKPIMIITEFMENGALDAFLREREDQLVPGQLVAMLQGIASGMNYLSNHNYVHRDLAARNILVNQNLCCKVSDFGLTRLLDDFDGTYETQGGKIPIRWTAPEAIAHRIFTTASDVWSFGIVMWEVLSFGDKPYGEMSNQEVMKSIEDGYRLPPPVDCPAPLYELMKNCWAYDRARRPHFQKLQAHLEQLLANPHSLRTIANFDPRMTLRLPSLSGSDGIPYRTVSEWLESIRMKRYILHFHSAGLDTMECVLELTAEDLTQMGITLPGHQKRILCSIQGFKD
The conditions noted are these: 100 μM peptide. The method, boiled down:
as §1

Where a SMILES comes first, the peptide text is derived from it.

T1 sequence (O75116 whole entry): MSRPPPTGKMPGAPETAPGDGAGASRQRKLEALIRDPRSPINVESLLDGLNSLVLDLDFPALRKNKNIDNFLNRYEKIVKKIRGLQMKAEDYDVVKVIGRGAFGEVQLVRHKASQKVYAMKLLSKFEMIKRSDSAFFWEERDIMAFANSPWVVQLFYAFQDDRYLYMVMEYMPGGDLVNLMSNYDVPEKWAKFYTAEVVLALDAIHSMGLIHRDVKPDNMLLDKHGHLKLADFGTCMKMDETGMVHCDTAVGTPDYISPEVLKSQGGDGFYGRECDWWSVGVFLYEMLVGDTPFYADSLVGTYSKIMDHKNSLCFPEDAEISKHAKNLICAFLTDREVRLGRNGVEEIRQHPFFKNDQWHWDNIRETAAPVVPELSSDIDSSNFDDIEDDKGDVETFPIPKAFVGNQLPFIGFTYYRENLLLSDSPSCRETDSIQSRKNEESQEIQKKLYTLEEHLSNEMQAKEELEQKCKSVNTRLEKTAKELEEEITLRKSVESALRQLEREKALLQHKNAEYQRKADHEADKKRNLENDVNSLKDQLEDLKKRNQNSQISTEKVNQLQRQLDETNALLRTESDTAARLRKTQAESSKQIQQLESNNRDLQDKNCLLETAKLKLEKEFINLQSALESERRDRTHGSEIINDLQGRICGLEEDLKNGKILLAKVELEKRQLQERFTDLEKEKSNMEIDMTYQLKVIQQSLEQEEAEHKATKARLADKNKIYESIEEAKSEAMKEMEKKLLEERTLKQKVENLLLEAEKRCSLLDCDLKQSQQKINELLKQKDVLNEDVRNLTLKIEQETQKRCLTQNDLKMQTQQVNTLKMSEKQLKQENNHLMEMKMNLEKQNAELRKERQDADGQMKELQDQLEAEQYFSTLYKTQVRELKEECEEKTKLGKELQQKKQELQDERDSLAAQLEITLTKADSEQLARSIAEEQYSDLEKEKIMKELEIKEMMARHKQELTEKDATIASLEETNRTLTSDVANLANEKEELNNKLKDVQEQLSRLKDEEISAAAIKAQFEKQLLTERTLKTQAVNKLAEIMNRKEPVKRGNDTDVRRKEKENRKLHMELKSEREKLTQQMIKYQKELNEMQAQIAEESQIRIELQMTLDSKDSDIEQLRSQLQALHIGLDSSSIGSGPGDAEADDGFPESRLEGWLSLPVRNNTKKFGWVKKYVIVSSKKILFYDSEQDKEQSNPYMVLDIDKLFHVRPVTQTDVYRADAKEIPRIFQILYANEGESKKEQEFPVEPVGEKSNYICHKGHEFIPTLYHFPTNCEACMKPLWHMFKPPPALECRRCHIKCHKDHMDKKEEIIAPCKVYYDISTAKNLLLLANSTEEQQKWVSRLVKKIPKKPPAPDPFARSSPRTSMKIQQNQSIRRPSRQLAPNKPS

Turning to “YARAAARQARAKALNRQLGVA (Mammalian) [MMI-0200]”, the “ROCK-II(h) % activity” value with ROCK-II(h) is 85%. Also, in the experiment with Fms(h), the “Fms(h) % activity” value was found to be 92%. Moreover, the “FGFR1(h) % activity” value with FGFR1(h) worked out at 97%. Besides, the “KDR(h) % activity” value with KDR(h) was 110%. Besides, the “CDK7/cyclinH/MAT1(h) % activity” value with CDK7/cyclinH/MAT1(h) is given as 67%. Also, in the experiment with MAPKAP-K3(h), the “MAPKAP-K3(h) % activity” value was 39%.
As to “HRRIKAWLKKIKALARQLGVAA (Mammalian) [MMI-0500]”, the “ROCK-II(h) % activity” value with ROCK-II(h) amounted to 2%. Besides, in the experiment with Fms(h), the “Fms(h) % activity” value stood at 14%. The “CDK9/cyclin T1(h) % activity” value with CDK9/cyclin T1(h) stood at 6%. Moreover, in the experiment with FGFR1(h), the “FGFR1(h) % activity” value was 18%. In addition, the “KDR(h) % activity” value with KDR(h) turned out to be 15%. Moreover, the “CDK7/cyclinH/MAT1(h) % activity” value with CDK7/cyclinH/MAT1(h) was 15%. For the same molecule, the “TAO1(h) % activity” value with TAO1(h) amounted to 24%. The “EphA1(h) % activity” value in the experiment with EphA1(h) is on record as 40%. Moreover, the “MAPKAP-K3(h) % activity” value in the experiment with MAPKAP-K3(h) came to 9%.
`CC(C)C[C@H](NC(=O)[C@H](C)NC(=O)[C@H](CCCCN)NC(=O)[C@H](C)NC(=O)[C@H](CCCNC(=N)N)NC(=O)[C@H](C)NC(=O)[C@H](CCC(N)=O)NC(=O)[C@H](CCCNC(=N)N)NC(=O)[C@H](C)NC(=O)[C@H](C)NC(=O)[C@H](C)NC(=O)[C@H](CCCNC(=N)N)NC(=O)[C@H](C)NC(=O)[C@@H](N)Cc1ccc(O)cc1)C(=O)N[C@@H](C)C(=O)N[C@@H](CCCNC(=N)N)C(=O)N[C@@H](CCC(N)=O)C(=O)N[C@@H](CC(C)C)C(=O)NCC(=O)N[C@H](C(=O)N[C@@H](C)C(=O)N[C@@H](C)C(=O)O)C(C)C` [MMI-0100] (H-YARAAARQARAKALARQLGVAA-OH; N-terminus and C-terminus assumed): the inhibition at 100 µM on MAPKAP-K3(h) (read-out: inhibition of kinase activity of MK3) was more than 65%.
As to KAFAKLAARLYRKALARQLGVAA [MMI-0400], the “ROCK-II(h) % activity” value in the experiment with ROCK-II(h) is on record as 77%. In addition, the “Fms(h) % activity” value with Fms(h) is 37%. The “CDK9/cyclin T1(h) % activity” value in the experiment with CDK9/cyclin T1(h) worked out at 235%. Also, the “FGFR1(h) % activity” value with FGFR1(h) is given as 59%. The “KDR(h) % activity” value with KDR(h) turned out to be 94%. The “CDK7/cyclinH/MAT1(h) % activity” value in the experiment with CDK7/cyclinH/MAT1(h) stood at 47%. Also, the “TAO1(h) % activity” value with TAO1(h) is 73%. Moreover, the “EphA1(h) % activity” value with EphA1(h) amounted to 61%. Further, the “MAPKAP-K3(h) % activity” value in the experiment with MAPKAP-K3(h) is listed as 7%.
For FAKLAARLYRKALARQLGVAA [MMI-0300], in the experiment with ROCK-II(h), the “ROCK-II(h) % activity” value is given as 74%. Also, in the experiment with Fms(h), the “Fms(h) % activity” value amounted to 45%. In the experiment with CDK9/cyclin T1(h), the “CDK9/cyclin T1(h) % activity” value was found to be 91%. Further, the “FGFR1(h) % activity” value with FGFR1(h) turned out to be 55%. Besides, in the experiment with KDR(h), the “KDR(h) % activity” value came out at 101%. In addition, the “CDK7/cyclinH/MAT1(h) % activity” value with CDK7/cyclinH/MAT1(h) stood at 65%. Besides, in the experiment with TAO1(h), the “TAO1(h) % activity” value is listed as 82%. In the experiment with EphA1(h), the “EphA1(h) % activity” value stood at 73%. Further, the “MAPKAP-K3(h) % activity” value with MAPKAP-K3(h) came out at 3%.
